Measurements taken from patent publication US7144983 (Genentech, dated 2006).

What was measured:
[1] = biological target: T1, rat trkA recombinantly expressed on NIH3T3 cells (rat, UniProt P35739 33-799); assay: 125I-hNGF displacement, NIH3T3-trkA cells, 4 C
T1 construct: whole, on cells; also called NIH3T3-trkA; p140trkA

[2] = biological target: T1, rat trkA recombinantly expressed on …; assay: cell-based or functional assay
[3] = biological target: trkA on parental PC12 cells (rat, UniProt P35739 33-799); assay: cell-based or functional assay
trkA on parental PC12 cells, sequence (P35739 33-799): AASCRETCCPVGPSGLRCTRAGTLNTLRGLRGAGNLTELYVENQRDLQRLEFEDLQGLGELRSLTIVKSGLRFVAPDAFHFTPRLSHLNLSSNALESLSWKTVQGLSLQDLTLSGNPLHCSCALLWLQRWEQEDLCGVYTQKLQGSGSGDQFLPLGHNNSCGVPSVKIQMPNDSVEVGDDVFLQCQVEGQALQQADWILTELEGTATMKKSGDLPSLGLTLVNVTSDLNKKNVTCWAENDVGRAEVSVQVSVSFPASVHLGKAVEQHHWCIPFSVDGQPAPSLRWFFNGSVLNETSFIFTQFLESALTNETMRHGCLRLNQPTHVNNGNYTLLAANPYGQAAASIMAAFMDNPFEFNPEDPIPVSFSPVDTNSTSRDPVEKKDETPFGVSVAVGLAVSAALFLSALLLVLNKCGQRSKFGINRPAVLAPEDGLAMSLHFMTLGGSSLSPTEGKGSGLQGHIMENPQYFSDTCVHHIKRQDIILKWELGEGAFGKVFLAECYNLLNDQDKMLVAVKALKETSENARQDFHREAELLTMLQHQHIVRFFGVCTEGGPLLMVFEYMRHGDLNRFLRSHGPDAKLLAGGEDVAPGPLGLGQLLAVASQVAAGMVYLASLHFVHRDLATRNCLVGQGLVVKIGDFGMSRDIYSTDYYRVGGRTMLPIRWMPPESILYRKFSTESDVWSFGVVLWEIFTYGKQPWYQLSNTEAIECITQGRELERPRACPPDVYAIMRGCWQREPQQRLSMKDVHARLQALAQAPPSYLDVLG

[4] = biological target: T2, p75 on A875 human melanoma cells (human, UniProt P08138 29-427); assay: 125I-hNGF displacement, A875 cells (p75), 4 C
T2 construct: whole, on cells; also called A875-p75
T2 sequence (looked up): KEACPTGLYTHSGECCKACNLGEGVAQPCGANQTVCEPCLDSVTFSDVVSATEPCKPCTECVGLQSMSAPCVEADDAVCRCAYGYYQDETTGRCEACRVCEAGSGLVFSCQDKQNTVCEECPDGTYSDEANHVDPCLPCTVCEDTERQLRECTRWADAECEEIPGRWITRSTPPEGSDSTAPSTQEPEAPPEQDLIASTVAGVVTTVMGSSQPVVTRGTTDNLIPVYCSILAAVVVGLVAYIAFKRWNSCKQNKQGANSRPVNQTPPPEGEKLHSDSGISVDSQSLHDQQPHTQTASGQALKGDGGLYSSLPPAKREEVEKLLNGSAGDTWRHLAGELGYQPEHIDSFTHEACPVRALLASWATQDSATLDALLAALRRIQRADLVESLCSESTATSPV

T1 sequence (P35739 33-799): as the sequence (P35739 33-799) above

B1: hNGF Mut 5 (hBDNF N-terminal chimeric mutant) (ligand)
chain: HSDPAHRGEFSVCDSVSVWVGDKTTATDIKGKEVMVLGEVNINNSVFKQYFFETKCRDPNPVDSGCRGIDSKHWNSYCTTTHTFVKALTMDGKQAAWRFIRIDTACVCVLSRKAVRRA
IC50 mut/NGF [1]: > 40 ratio
trkA autophosphorylation, maximal level at 1 × 10^-8 M, mutant/hNGF [2]: 0.07 ratio
PC12 neurite outgrowth EC50 [3]: 0.016 µg/mL
PC12 neurite outgrowth EC50 mutant/hNGF [3]: 114 ratio
IC50 [4]: 0.21 nM
IC50 mut/NGF [4]: 1 ratio
